In PMC5759761 (Nature, 2017):

Molecular target: the molecule itself
Experiment: cryo-EM structure

B1: E. coli MsbA (natural protein)
chain: MHNDKDLSTWQTFRRLWPTIAPFKAGLIVAGVALILNAASDTFMLSLLKPLLDDGFGKTDRSVLVWMPLVVIGLMILRGITSYVSSYCISWVSGKVVMTMRRRLFGHMMGMPVSFFDKQSTGTLLSRITYDSEQVASSSSGALITVVREGASIIGLFIMMFYYSWQLSIILIVLAPIVSIAIRVVSKRFRNISKNMQNTMGQVTTSAEQMLKGHKEVLIFGGQEVETKRFDKVSNRMRLQGMKMVSASSISDPIIQLIASLALAFVLYAASFPSVMDSLTAGTITVVFSSMIALMRPLKSLTNVNAQFQRGMAACQTLFTILDSEQEKDEGKRVIERATGDVEFRNVTFTYPGRDVPALRNINLKIPAGKTVALVGRSGSGKSTIASLITRFYDIDEGEILMDGHDLREYTLASLRNQVALVSQNVHLFNDTVANNIAYARTEQYSREQIEEAARMAYAMDFINKMDNGLDTVIGENGVLLSGGQRQRIAIARALLRDSPILILDEATSALDTESERAIQAALDELQKNRTSLVIAHRLSTIEKADEIVVVEDGVIVERGTHNDLLEHRGVYAQLHKMQFGQ
stoichiometry N: 2
